Assay results reported in patent US20040170601A1, “Method of improving the growth performance of an animal” (priority 2001, published 2004).

Assays:
eosinophils = experiment: Example 4: % eosinophils of WBC in blood; type: in vivo, pigs; settings: blood the day after treatment, end of weaner period
From the text: Blood and sera samples collected at the start (before treatments) and end of the weaner period. Blood and sera were taken prior to injecting samples.
Blood was taken the day after IL-5 and saline treatments and represent a single time point only. […] As a general observation IL-5 plus medication had higher eosinophils numbers than the IL-5 without antibiotics.

[1] = Example 5: repeat growth performance trial of IL-5 with normal, reduced and no antibiotics; type: in vivo, pigs
Description: This trial repeats the evaluation of IL-5 to improve growth performance and/or immunity of pigs by comparing the growth rate and health of male and female weaner pigs (from 28 days old: Week 0 of the trial) through the weaner (Weeks 0-6), grower (Weeks 6-13) and finisher (Weeks 13-19) stages to slaughter (Week 19), which were administered with recombinant porcine cytokine IL-5, and saline was used as a control, with and without standard weaner medicated water and feed, and reduced antibiotics, in a commercial piggery environment.
This trial (weaner/grower/finisher trial) was designed to investigate the effect of providing IL-5 and the controls (saline) from weaning to slaughter with normal, reduced and no antibiotics in water supply. The experiment evaluates the capacity of IL-5 for replacing antibiotics under commercial pig rearing conditions and to determine the effect of continuous administration of the cytokines throughout the life of the pig on performance and carcass characteristics.
The experiment was undertaken in a commercial environment where the pigs were weaned at 28 days of age. All injections were 1 ml. There were 16 pigs per treatment, 8 males and 8 females per treatment. The overall weight of pigs in each treatment was similar at the start of the experiment.
−means no antibiotic supplements in water or feed throughout trial.
0.5 means single antibiotics used throughout trial at normal dose
+ means normal antibiotic regime used throughout trial IL-5+ means IL-5 administered during Weaner/Grower/Finisher periods.
IL-5+p means IL-5 administered during Weaner period only.
A. Saline injection, 1 ml IM neck muscle.
B. 100 μg IL-5 injection, 1 ml IM neck muscle.
Weaner stage: 2 injections per week,
Grower and finisher stage 1 injection per week.
Pigs were weaned and weighted at the start of the experiment (D0, W0) and weekly until the end of the weaner period (W6), at the end of the grower (W13) and finisher (W19) stages and once during the grower (W9) and finisher (W16) stages. Blood and sera samples were collected at the start (before treatments) and end of the weaner, grower and finisher periods. Blood and sera were taken prior to treatment injection. Haematology (totals and differentials) was performed.
At the start of the trial, the mean weight and the variance of all groups was equalised to reduce confounding influence of starting weight. Thus, the positive effects on growth were due to treatment effects.

[2] = Example 5: production loss during outbreak of post weaning scours; type: in vivo, pigs; settings: normal antibiotics, 2 days into weaner period
From the text: (§1) Unfortunately, a severe outbreak of post weaning scours affected all treatment groups. The most likely cause of the scours was E. coli. […] FIG. 25 compares the average weights of the saline controls, with and without antibiotics, from this experiment and the previous experiment. […] The infectious disease (scours) affected the un-medicated saline group at an earlier stage than the medicated group.
(§2) Weights were taken from the start to the end of the weaner period. […] This benefit was also reflected in the production loss as measured by deaths from infectious disease, or weight loss over any given week during the weaner period (FIG. 29).
(§3) All other deaths were a result of scours. Weight loss was defined as one or more weekly weight reductions of individual pigs. […] Antibiotic supplements also lessened production loss. Weight loss could have also been a result of stress, especially at the time of weaning when pigs are removed from sows, transported, mixed in different social groups and fed dry food. […] The higher average weights were presumably due to reduced severity of disease and associated weight loss. […] The pattern of higher average weight gains in IL-5 treated pigs was repeated with the reduced level and normal level of antibiotic supplementation (FIG. 31 and FIG. 32 respectively). […]

E. coli = experiment: as above; type: in vivo, pigs; settings: vs respective saline controls
From the text: as §1, §2, §3

haemorrhagic E. coli = experiment: Example 6: haemorrhagic E. coli challenge of weaner pigs; type: in vivo; parameters: decrease in faecal shedding (total faecal culture scores) compared to saline treated controls / reduction in clinical signs compared to saline controls / reduction in E. coli culture scores at post-mortem compared to saline controls / reduction of bacterial load in the small intestine (foregut) compared with saline controls: concentration or dose not given beside the values
Description: Male weaner pigs, with a mean weight of 5.4 kg were allocated to groups of 8, with the mean weight being equalised between groups. Pigs were housed in group pens. Pigs were provided with pelleted feed and water ad libitum.
Pigs were treated with cytokines or the antibiotic, Apralan, and challenged with E. coli according to the schedule outlined in FIG. 42. E. coli were delivered orally in an 8 ml dose containing 10^8 cfu/ml. Blood was sampled from pigs by venipuncture at −2 days, day 0, and +6 days from initial challenge with E. coli as outlined in FIG. 42. Blood was assayed for immunological parameters as previously described. Pigs were weighed at day −2 and at the end of the trial on day 7.
Faecal samples were taken from each pig daily from day 2 to day 6 after challenge; these samples were cultured on sheep blood agar to quantify E. coli load. The condition of faeces on each day of challenge was noted as normal, wet or diarrhoea, as an indication of clinical signs.
At the conclusion of the experiment, pigs were euthanased and samples were taken from different areas in the gastro-intestinal tract, including the small intestine (25%, 50% and 75% along the length of the small intestine), the caecum and colon, and from the faeces. These post-mortem samples were also plated out on sheep blood agar to quantify E. coli load. Growth on sheep blood agar was scored from 0 to 5 (where 0 was no growth, 1 signified growth in the primary inoculum, 2 signified growth in the first streak, 3 signified growth in the 2nd streak, 4 signified growth in the 3rd streak, and 5 signified growth of E. coli in the final streak), and group means and standard errors were calculated.

[3] = 2nd trial, normal medication, weaner period
[4] = normal antibiotics, IL-5 during weaner, grower, finisher periods

B1: interleukin 5 (protein, UniProt Q9MYM5 22-134, looked up)
Interleukin-5: VENTMNRLVAETLTLLSIHRTLLIGDGNLMISTPVHTNHQLCIEEVFQGIDTLKNQTARGDAVEKLFQNLSLIKEYIDRQKKNCGGERWRVTQFLDYLQVFLGVINTEWTMES
notes: recombinant porcine IL-5 protein expressed in E. coli; + / − = with / without antibiotic medicated feed and water, +p = weaner period only
% eosinophil cells of WBC (eosinophils): substantial effect on % eosinophil cells of WBC in both the medicated and un-medicated groups | increase in average weights over medicated saline control [1, 3]: 7% | increase in weight gain over medicated saline control [1, 3]: 11% | total group weights, weaner period ([1]; no, reduced or normal antibiotics): beneficial effects on total weights, especially with reduced or no antibiotic supplements | average weight increases, weaner-only vs continuous IL-5 ([1]; normal antibiotics): no significant differences between groups given IL-5 during the weaner or continuously throughout the weaner, grower and finisher periods | change of final average weight vs saline control [1, 4]: ~−1.5% | decrease of final average weight vs saline control [1, 4]: 1.3 kg | average weights ([1]; normal antibiotics, W6 to W13): consistently higher average weights than the saline control (with normal antibiotics) from the end of the weaner period (W6) to the end of the grower period (W13) | average weight higher than IL-5+p ([1]; normal antibiotics, Week 13): 1.3 kg | average weight higher than saline control ([1]; normal antibiotics, Week 13): 4.7 kg | average weight lower than IL-5+p ([1]; normal antibiotics, Week 19): 2 kg | average weight lower than saline control ([1]; normal antibiotics, Week 19): 1.3 kg | average weight gains during the Weaner period ([1]; vs respective saline controls, with or without antibiotic supplements): consistently higher average weight gains during the Weaner period compared to the respective saline controls with or without antibiotic supplements in water or feed | average weight gains during the Weaner period ([1]; vs saline controls without antibiotic supplements): consistently higher average weight gains during the Weaner period | deaths [2]: H. parasuis deaths occurred | production loss (deaths from infectious disease or weight loss), weaner period (E. coli): less production loss compared to their respective saline controls | clinical signs (wet faeces or diarrhoea) (haemorrhagic E. coli; 5 days after challenge): fewer recorded cases of wet faeces and diarrhoea than saline controls or Apralan treatment | E. coli shedding in faeces (faecal culture) (haemorrhagic E. coli; day 2 to day 6 after challenge): decreased E. coli shedding in faeces | decrease in faecal shedding (total faecal culture scores) compared to saline treated controls (haemorrhagic E. coli; entire challenge period): 43% | reduction in E. coli culture scores at post-mortem compared to saline controls (haemorrhagic E. coli; gastro-intestinal tract total): 15% | appetite (daily feed intake per pig) during E. coli challenge (haemorrhagic E. coli; pig, in vivo): improved appetite compared to saline treated pigs | bacterial load in areas of the gastro-intestinal tract at post-mortem (haemorrhagic E. coli; pig, in vivo): reduced bacterial load in most areas of the gastro-intestinal tract | days after challenge with bacterial shedding significantly less than saline treated controls (haemorrhagic E. coli; pig, in vivo): 3/5 | group mean total E. coli culture score at post-mortem (out of a possible 30) (haemorrhagic E. coli; pig, in vivo): less than 15 | reduction in clinical signs compared to saline controls (haemorrhagic E. coli; pig, in vivo): 64% | reduction of bacterial load in the small intestine (foregut) compared with saline controls (haemorrhagic E. coli; post-mortem): 36%
